The text below walks through data of the supplement of paper PMC7877785.

This data set in a line: self-splicing fitness, log relative to wild type (ln ratio); higher = more splicing; Tetrahymena group I intron in knt gene, E. coli kanamycin selection, DiMSum; sequences stand for … in CUCUCU…GGAGGGAAAAGUUAUCAGGCAUGCACCUGGUAGCUAGUCUUUAAACCAAUAGAUUGCAUCGGUUUAAAAGGCAAGACCGUCAAAUUGCGGGAAAGGGGUCAACAGCCGUUCAGUACCAAGUCUCAGGGGAAACUUUGAGAUGGCCUUGCAAAGGGUAUGGUAAUAAGCUGACGGACAUGGUCCUAACCACGCAGCCAAGUCCUAAGUCAACAGAUCUUCUGUUGAUAUGGAUGCAGUUCACAGACUAAAUGUCGGUCGGGGAAGAUGUAUUCUUCUCAUAAGAUAUAGUCGGACCUCUCCUUAAUGGGAGCUAGCGGAUGAAGUGAUGCAACACUGGAGCCGCUGGGAACUAAUUUGUAUGCGAAAGUAUAUUGAUUAGUUUUGGAGUACUCGUGGUCG
In outline: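 Fitness was computed with DiMSum as the error-weighted combination of replicate fold changes, kanamycin versus none, each normalised to wild type. The library randomised all eight intron nucleotides of the P1ex region, with the intron placed in the knt kanamycin-resistance gene on pET-22b(+) in E. coli BL21(DE3). Six replicate transformations were grown overnight at 37°C or 30°C on LB agar with or without 25 μg/mL kanamycin, plus 100 μg/mL carbenicillin, 50 μM IPTG and 0.2% rhamnose. Pooled colonies were amplicon-sequenced on an Illumina HiSeq 2500.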

± gives the uncertainty stated by the source.

In the case of GAGCAGCAAUAUUACGGAUU, the “self-splicing fitness (ln)” value by setting is: (30 °C) -1.2 ± 0.1; (37 °C) 0.538 ± 0.11.
On the same counts, the results for UUUGAGCAAUAUUACGGUCG are -3.78 ± 0.21 and -1.73 ± 0.19.
Regarding CCUAAGCAAUAUUACGGAUU, the “self-splicing fitness (ln)” value runs as follows: (30 °C) -4.68 ± 0.28; (37 °C) -2.46 ± 0.23.
The like results for UUCUAGCAAUAUUACGAUGG were, in that order, -2.49 ± 0.19 and -1.02 ± 0.34.
Consider GAGGAGCAAUAUUACGACCG, for which the “self-splicing fitness (ln)” value (37 °C) is -0.621 ± 0.31.
For ACCCAGCAAUAUUACGGAUC, the “self-splicing fitness (ln)” value by setting is: (30 °C) -2.82 ± 0.085; (37 °C) -1.16 ± 0.089.
As to UCGGAGCAAUAUUACGUCAU, the “self-splicing fitness (ln)” value (37 °C) is -2.37 ± 0.25.
In the case of ACAGAGCAAUAUUACGUCAU, the “self-splicing fitness (ln)” value (30 °C) was -3.71 ± 0.17 and the “self-splicing fitness (ln)” value (37 °C) was -2.75 ± 0.27.
On the same counts, the results for AGUAAGCAAUAUUACGCGCC are -0.457 ± 0.22 and 0.671 ± 0.29.
As for AUUAAGCAAUAUUACGUCAA, the “self-splicing fitness (ln)” value is -2.1 ± 0.22 (30 °C) and -0.766 ± 0.16 (37 °C).
Regarding GUCCAGCAAUAUUACGAGUC, the “self-splicing fitness (ln)” value (30 °C) was -1.23 ± 0.097 and the “self-splicing fitness (ln)” value (37 °C) was -0.164 ± 0.098.
Consider CCUCAGCAAUAUUACGAUGU, for which the “self-splicing fitness (ln)” value is, setting by setting: (30 °C) -3.41 ± 0.15; (37 °C) -1.3 ± 0.12.
With CUUGAGCAAUAUUACGACAC, the “self-splicing fitness (ln)” value (37 °C) was -3.08 ± 0.47.
Same read-out and setting: the same measure for UUUCAGCAAUAUUACGUUGA: -1.85 ± 0.34.
For UGUGAGCAAUAUUACGUUAA, the “self-splicing fitness (ln)” value runs as follows: (30 °C) -2.97 ± 0.31; (37 °C) -2.44 ± 0.37.
Regarding CCUGAGCAAUAUUACGCAGU, the “self-splicing fitness (ln)” value reads like this: (30 °C) -2.91 ± 0.2; (37 °C) -2.84 ± 0.28.
On to CCCCAGCAAUAUUACGGAUC, for which the “self-splicing fitness (ln)” value (30 °C) is -2.89 ± 0.12 and the “self-splicing fitness (ln)” value (37 °C) is -2.96 ± 0.21.
Take AAUAAGCAAUAUUACGCGCU: the “self-splicing fitness (ln)” value was -0.554 ± 0.17 (30 °C) and -0.562 ± 0.18 (37 °C).
The like results for GCAAAGCAAUAUUACGUAAA were, in that order, -0.824 ± 0.062 and -0.5 ± 0.085.
On the same counts, the results for GGGAAGCAAUAUUACGCUGA are -2.63 ± 0.33 and -1.54 ± 0.25.
On the same counts, the results for ACCGAGCAAUAUUACGAUCG are -3.05 ± 0.33 and -1.64 ± 0.27.
Take GUAAAGCAAUAUUACGAGCU: the “self-splicing fitness (ln)” value is -1.4 ± 0.13 (30 °C) and -0.306 ± 0.18 (37 °C).
The like results for CGACAGCAAUAUUACGUAUU were, in that order, -3.09 ± 0.14 and -2.53 ± 0.16.
Take GACUAGCAAUAUUACGGCGC: the “self-splicing fitness (ln)” value (30 °C) was 0.0438 ± 0.14 and the “self-splicing fitness (ln)” value (37 °C) is -0.0936 ± 0.17.
On the same counts, the results for AACUAGCAAUAUUACGUGUG are -1.47 ± 0.051 and -0.869 ± 0.067.
Regarding CCGCAGCAAUAUUACGGGUG, the “self-splicing fitness (ln)” value (30 °C) is -1.22 ± 0.055 and the “self-splicing fitness (ln)” value (37 °C) was -0.741 ± 0.069.
Take UGCAAGCAAUAUUACGCAUA: the “self-splicing fitness (ln)” value is -2.59 ± 0.2 (30 °C) and -2.33 ± 0.2 (37 °C).
On to GCUUAGCAAUAUUACGGUGG, for which the “self-splicing fitness (ln)” value runs as follows: (30 °C) -2.24 ± 0.19; (37 °C) -2.38 ± 0.28.
As for CGCUAGCAAUAUUACGAAGU, the “self-splicing fitness (ln)” value is -3.12 ± 0.22 (30 °C) and -2.28 ± 0.31 (37 °C).
For the sequence GGUUAGCAAUAUUACGGUCC, the “self-splicing fitness (ln)” value (30 °C) is -1.77 ± 0.49.
Take UCCCAGCAAUAUUACGCGUG: the “self-splicing fitness (ln)” value is, setting by setting: (30 °C) -3.49 ± 0.18; (37 °C) -2.34 ± 0.2.
The like results for AGGCAGCAAUAUUACGGGCG were, in that order, -0.287 ± 0.097 and -0.172 ± 0.11.
On to CUAGAGCAAUAUUACGUUGU, for which the “self-splicing fitness (ln)” value runs as follows: (30 °C) -3.77 ± 0.2; (37 °C) -2.5 ± 0.22.
The like results for CAACAGCAAUAUUACGCAUA were, in that order, -2.7 ± 0.12 and -1.4 ± 0.098.
The like results for UGGCAGCAAUAUUACGGUGG were, in that order, -0.928 ± 0.079 and -0.811 ± 0.11.
Turning to GCUUAGCAAUAUUACGCCGC, the “self-splicing fitness (ln)” value (30 °C) is -3.07 ± 0.5.
As to GCUAAGCAAUAUUACGGUAA, the “self-splicing fitness (ln)” value is, setting by setting: (30 °C) -1.65 ± 0.17; (37 °C) -1.04 ± 0.16.
CAGCAGCAAUAUUACGUCCC: the “self-splicing fitness (ln)” value (30 °C) is -2.38 ± 0.47.
In the case of AUGGAGCAAUAUUACGUAGC, for the setting “37 °C”, the “self-splicing fitness (ln)” value is -1.93 ± 0.3.
The same measure, in the same setting: the same measure for GAUUAGCAAUAUUACGACGG: -2.39 ± 0.33.
In the case of GUUAAGCAAUAUUACGUAAG, the “self-splicing fitness (ln)” value was -0.147 ± 0.098 (30 °C) and -0.0396 ± 0.13 (37 °C).
